Experimental findings from IntAct's records for PubMed 23629652 are described below.

The target in this assay is klk5_human KLK5 (UniProt Q9Y337).
Sequence of klk5_human KLK5 (Q9Y337 whole entry): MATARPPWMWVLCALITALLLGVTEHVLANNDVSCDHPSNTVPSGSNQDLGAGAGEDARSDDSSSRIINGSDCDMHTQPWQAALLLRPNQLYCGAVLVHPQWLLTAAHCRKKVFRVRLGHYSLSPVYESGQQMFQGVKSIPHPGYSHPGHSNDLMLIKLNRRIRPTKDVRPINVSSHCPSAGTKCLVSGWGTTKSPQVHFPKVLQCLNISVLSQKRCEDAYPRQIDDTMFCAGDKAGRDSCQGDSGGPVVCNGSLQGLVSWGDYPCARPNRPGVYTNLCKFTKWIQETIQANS

In the case of “Filaggrin (Homo sapiens), P20930 S3385H;Y3388H;Q3389H;S3391H;T3392H”, the “effect of a mutation on the interaction” value is reported as “disrupting interaction”.
